According to patent US20230263891A1, “SONOGENETIC STIMULATION OF CELLS EXPRESSING TRPA1” (Salk Institute for Biological Studies, priority 2020, published 2023):
Entries after “also recorded” stand apart in the source; their conditions may differ.

What was measured:
HEK cells = assay type: cell-based, human; details: 0.1% , positive control
Excerpt: FIGS. 6A-6J: Ultrasound stimulation at 2.5 MPa is safe as assessed by intracellular uptake of propidium iodide. FIG. 6A: Image showing bright field (BF) image for GCaMP6f-HEK cells, and the corresponding GFP channel (FIG. 6B) and propidium iodide channel (FIG. 6C) before ultrasound stimulation. Multiple trials with ultrasound stimulation at 2.5 MPa 100 ms had no effect on the intracellular levels of propidium iodide (FIG. 6D) n=3 stims. FIG. 6E: Image showing HEK cells used for the positive control, including GFP channel (FIG. 6F) and propidium iodide channel before treatment (FIG. 6G). […] Time course for the propidium iodide signal for an ultrasound stimulated cell highlighted in FIG. 6A, shown in FIG. 6I, and for a cell treated with […] highlighted in FIG. 6E, shown in FIG. 6J. Scale bar, 20 μm.
To facilitate rapid screening of ultrasound-triggered cellular responses, an optical imaging setup was aligned with a custom designed transducer. In particular, a single-crystal 6.91 MHz lithium niobate transducer (FIG. 1A) that lacks hysteresis and generates minimal heat as it converts electrical input into mechanical energy was designed. Such a transducer reduced ultrasound-triggered temperature changes. […]

human-TRPV1 = human-TRPV1 (Homo sapiens, UniProt Q8NER1); assay type: cell-based; details: capsaicin 3 μM
excitable HEK cells = assay: Patch-clamp electrophysiology of excitable HEK cells expressing TRPA1 channel polypeptides under ultrasound; assay type: cell-based, human
rat primary neurons = assay: Whole-cell patch clamp (voltage and current clamp) of primary neurons under ultrasound; assay type: cell-based
[1] = Rotarod motor learning task; details: cortical expression; 5 days
[2] = tested on: layer V motor cortical neurons; assay: c-fos expression in cortical neurons after ultrasound in vivo; design: species or system mouse
[3] = tested on: Human Embryonic Kidney 293T (HEK) cells; assay: Ultrasound-evoked GCaMP6f calcium response of HEK cells transfected with candidate channels (screen and TRPA1 variants); assay type: cell-based; details: for Response to ultrasound stimulation (cells activated, GCaMP6f): transfected GCaMP6f HEK cells, 6.91 MHz, screen at 100 msecs, 1.5 MPa
[4] = tested on: mouse primary cortical neurons; assay: GCaMP6f calcium imaging of primary cortical neurons under ultrasound or AITC; assay type: cell-based
[5] = hsTRPA1-expressing primary neurons, ultrasound

Chain of human-TRPV1 (Q8NER1 whole entry): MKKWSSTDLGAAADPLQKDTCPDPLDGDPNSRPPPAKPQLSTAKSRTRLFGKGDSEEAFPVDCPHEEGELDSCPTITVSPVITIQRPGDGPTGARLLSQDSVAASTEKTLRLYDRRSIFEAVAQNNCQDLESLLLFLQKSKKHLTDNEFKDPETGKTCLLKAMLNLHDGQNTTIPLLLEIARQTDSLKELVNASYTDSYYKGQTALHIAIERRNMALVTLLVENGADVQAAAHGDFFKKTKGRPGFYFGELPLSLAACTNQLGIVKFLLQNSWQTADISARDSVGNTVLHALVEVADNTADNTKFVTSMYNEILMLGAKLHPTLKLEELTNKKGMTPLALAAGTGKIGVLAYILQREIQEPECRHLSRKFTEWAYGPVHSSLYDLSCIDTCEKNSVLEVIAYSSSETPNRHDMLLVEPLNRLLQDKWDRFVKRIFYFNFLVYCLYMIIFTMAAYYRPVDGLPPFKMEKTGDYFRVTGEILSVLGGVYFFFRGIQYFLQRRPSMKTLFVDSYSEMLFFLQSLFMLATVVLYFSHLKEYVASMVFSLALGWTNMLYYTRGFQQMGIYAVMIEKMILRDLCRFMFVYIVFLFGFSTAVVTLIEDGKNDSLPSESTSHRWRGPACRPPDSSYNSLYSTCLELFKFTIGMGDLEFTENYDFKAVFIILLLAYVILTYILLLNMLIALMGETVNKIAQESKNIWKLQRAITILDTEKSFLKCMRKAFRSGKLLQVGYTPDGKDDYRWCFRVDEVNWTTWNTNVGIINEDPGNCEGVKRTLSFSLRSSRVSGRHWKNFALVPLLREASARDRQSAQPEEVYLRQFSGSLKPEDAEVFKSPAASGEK

Q: Which Intracellular propidium iodide (HEK cells) does the source give for Triton-X here?
A: significant increase of intracellular propidium iodide

Q: For `COc1cc(CNC(=O)CCCC/C=C/C(C)C)ccc1O` [capsaicin], which “Response of HEK cells expressing human TRPV1 to compound” value (human-TRPV1) is on record?
A: respond

B1: hsTRPA1: human TRPA1 channel protein Clone 63 (non-mutated/WT), SEQ ID NO: 4; RefSeq XP_016869435.1 (protein, listed as Homo sapiens)
chain: MKRSLRKMWRPGEKKEPQGVVYEDVPDDTEDFKESLKVVFEGSAYGLQNFNKQKKLKRCDDMDTFFLHYAAAEGQIELMEKITRDSSLEVLHEMDDYGNTPLHCAVEKNQIESVKFLLSRGANPNLRNFNMMAPLHIAVQGMNNEVMKVLLEHRTIDVNLEGENGNTAVIIACTTNNSEALQILLKKGAKPCKSNKWGCFPIHQAAFSGSKECMEIILRFGEEHGYSRQLHINFMNNGKATPLHLAVQNGDLEMIKMCLDNGAQIDPVEKGRCTAIHFAATQGATEIVKLMISSYSGSVDIVNTTDGCHETMLHRASLFDHHELADYLISVGADINKIDSEGRSPLILATASASWNIVNLLLSKGAQVDIKDNFGRNFLHLTVQQPYGLKNLRPEFMQMQQIKELVMDEDNDGCTPLHYACRQGGPGSVNNLLGFNVSIHSKSKDKKSPLHFAASYGRINTCQRLLQDISDTRLLNEGDLHGMTPLHLAAKNGHDKVVQLLLKKGALFLSDHNGWTALHHASMGGYTQTMKVILDTNLKCTDRLDEDGNTALHFAAREGHAKAVALLLSHNADIVLNKQQASFLHLALHNKRKEVVLTIIRSKRWDECLKIFSHNSPGNKCPITEMIEYLPECMKVLLDFCMLHSTEDKSCRDYYIEYNFKYLQCPLEFTKKTPTQDVIYEPLTALNAMVQNNRIELLNHPVCKEYLLMKWLAYGFRAHMMNLGSYCLGLIPMTILVVNIKPGMAFNSTGIINETSDHSEILDTTNSYLIKTCMILVFLSSIFGYCKEAGQIFQQKRNYFMDISNVLEWIIYTTGIIFVLPLFVEIPAHLQWQCGAIAVYFYWMNFLLYLQRFENCGIFIVMLEVILKTLLRSTVVFIFLLLAFGLSFYILLNLQDPFSSPLLSIIQTFSMMLGDINYRESFLEPYLRNELAHPVLSFAQLVSFTIFVPIVLMNLLIGLAVGDIAEVQKHASLKRIAMQVELHTSLEKKLPLWFLRKVDQKSTIVYPNKPRSGGMLFHIFCFLFCTGEIRQEIPNADKSLEMEILKQKYRLKDLTFLLEKQHELIKLIIQKMEIISETEDDDSHCSFQDRFKKEQMEQRNSRWNTVLRAVKAKTHHLEP
Q: With B1 as the molecule, how does the “Electrical properties (I-V curve) versus dTom controls” value (excitable HEK cells) read?
A: no significant disruptions in their electrical properties

Q: And the “Basal rate of activity before ultrasound versus dTom controls” value (excitable HEK cells; cell-attached)?
A: higher basal rates of activity

Q: What about the “Inward currents in response to ultrasound versus dTom controls” value (excitable HEK cells; cell-attached) of the same molecule?
A: significantly larger and more numerous

Q: What about the “Electrophysiological responses to ultrasound versus GFP control” value (excitable HEK cells; patch clamp assay) of the same molecule?
A: Significant electrophysiological responses to ultrasound

Q: What about the “Ultrasound-evoked action potentials in assayed neurons” value (rat primary neurons; current clamp) of the same molecule?
A: all assayed hsTRPA1-expressing neurons showed ultrasound-evoked action potentials

Q: And the “Lowest ultrasound pressure triggering action potentials” value (rat primary neurons; current clamp, 6.91 MHz)?
A: 0.2 MPa

Q: And the “Current responses to ultrasound in voltage clamp” value (rat primary neurons; whole-cell, within a few milliseconds of ultrasound stimulation, 0.25 MPa range)?
A: > 400 pA

Q: What about the “Ability to learn the rotarod task versus GFP-expressing animals” value [1] of the same molecule?
A: comparable ability to learn the rotarod task

Q: What about the “c-fos expression in the auditory cortex after ultrasound” value ([2]; hsTRPA1-expressing mice) of the same molecule?
A: not detected

Q: What about the “Number of c-fos positive cells in cortical motor neurons after ultrasound” value ([2]; hsTRPA1-expressing transgenic mice versus GFP) of the same molecule?
A: significantly increased the number of c-fos positive cells

Q: And the “Responsiveness to ultrasound stimulation among TRPA channels from different species (% of cells showing a response)” value ([3]; HEK cells, 100 ms ultrasound pulse at 3 MPa 6.91 MHz)?
A: the most responsive to ultrasound stimulation

Q: What about the “Response to ultrasound stimulation (cells activated, GCaMP6f)” value [3] of the same molecule?
A: robust responses; also recorded: selectively activated by ultrasound stimulation in a pressure- and duration-dependent manner

Q: What about the “Response to ultrasound stimulation (cells activated, GCaMP6f)” value ([3]; listed as human homolog) of the same molecule?
A: the best candidate

Q: What about the “Ultrasound-triggered intracellular calcium in expressing neurons versus CRE control” value ([4]; E18 mouse primary cortical neurons, AAV infected, 100 ms, 2.5 MPa) of the same molecule?
A: significant increase in intracellular calcium

Q: What about the Response duration [4, 5] of the same molecule?
A: 2 to 30 s

Q: And the “Response latency after stimulus onset (majority of neurons)” value [4, 5]?
A: 500 to 900 ms

Q: And the “Repeated ultrasound stimulation: cell health and calcium flux” value ([4]; repetitive 100 ms, 2.5 MPa ultrasound stimulation)?
A: without apparent deleterious effects on cell health or a substantial decrement in calcium flux
